Results as given in article PMC11006913.

Tests used:
Test in all cases: PBM
HOXD13 T313R (human) = conditions: contrastQ 1.85E-52; Universal PBM, 200 nM protein in PBS; temperature and pH not stated in the material
HESX1 N125S (human) = conditions: Universal PBM, 200 nM protein in PBS, temperature and pH not stated in the material
NKX2-5 K183E (human) = conditions: Universal PBM, 200 nM protein in PBS, temperature and pH not stated in the material
SHOX R173C (human) = conditions: contrastQ 1.38E-15; Universal PBM, 200 nM protein in PBS; temperature and pH not stated in the material
PROP1 R99Q (human) = conditions: contrastQ 2.52E-38; Universal PBM, 200 nM protein in PBS; temperature and pH not stated in the material
HESX1 R109Q (human) = conditions: contrastQ 1.24E-92; Universal PBM, 200 nM protein in PBS; temperature and pH not stated in the material
PROP1 F88S (human) = conditions: contrastQ 3.19E-277; Universal PBM, 200 nM protein in PBS; temperature and pH not stated in the material
HESX1 R160C (human) = conditions: contrastQ 1.53E-116; Universal PBM, 200 nM protein in PBS; temperature and pH not stated in the material
HESX1 E149K (human) = conditions: contrastQ 9.83E-08; Universal PBM, 200 nM protein in PBS; temperature and pH not stated in the material
HOXD13 S316C (human) = conditions: contrastQ 0.9698003 (no significant change); Universal PBM, 200 nM protein in PBS; temperature and pH not stated in the material
HOXD13 I322L (human) = conditions: Universal PBM, 200 nM protein in PBS, temperature and pH not stated in the material
ARX T333N (human) = conditions: contrastQ 5.30E-28; Universal PBM, 200 nM protein in PBS; temperature and pH not stated in the material
ARX P353R (human) = conditions: Universal PBM, 200 nM protein in PBS; temperature and pH not stated in the material
ARX L343Q (human) = conditions: contrastQ 3.05E-194; Universal PBM, 200 nM protein in PBS; temperature and pH not stated in the material

In the case of PBM 8-mer CAATAAAA, the binding signal (contrast difference vs reference) (HOXD13 T313R (human)) was -1.23.

In the case of PBM 8-mer CAATTAAA, the binding signal (contrast difference vs reference) (HESX1 N125S (human); contrastQ 0.7783541 (no significant change)) was -0.277.

PBM 8-mer GCACTTCA gave a binding signal (contrast difference vs reference) (NKX2-5 K183E (human); contrastQ 5.13E-38) of -1.27.

In the case of PBM 8-mer ATTATAAT, the binding signal (contrast difference vs reference) (SHOX R173C (human)) was -1.91.

With PBM 8-mer CTAATTGA the binding signal (contrast difference vs reference) (PROP1 R99Q (human)) was -0.687, the binding signal (contrast difference vs reference) (HESX1 R109Q (human)) was -3.4 and the binding signal (contrast difference vs reference) (PROP1 F88S (human)) was -4.12. The binding signal (contrast difference vs reference) (HESX1 R160C (human)) was -2.1, the binding signal (contrast difference vs reference) (HESX1 E149K (human)) was -0.502 and the binding signal (contrast difference vs reference) (HESX1 N125S (human); contrastQ 0.9069244 (no significant change)) was -0.172.

For PBM 8-mer TCATAAAA, the binding signal (contrast difference vs reference) (HOXD13 S316C (human)) was 0.133 and the binding signal (contrast difference vs reference) (HOXD13 I322L (human); contrastQ 8.96E-16) was -1.15.

For PBM 8-mer GCACTTGA, the binding signal (contrast difference vs reference) (NKX2-5 K183E (human); contrastQ 1.87E-56) was -1.44.

In the case of PBM 8-mer TCGTAAAA, the binding signal (contrast difference vs reference) (HOXD13 S316C (human)) was 0.128 and the binding signal (contrast difference vs reference) (HOXD13 I322L (human); contrastQ 3.41E-01 (no significant change)) was 0.259.

Substance PBM 8-mer GTTAATTA has a binding signal (contrast difference vs reference) (ARX T333N (human)) of -0.803, a binding signal (contrast difference vs reference) (ARX P353R (human)) of -2.42 and a binding signal (contrast difference vs reference) (ARX L343Q (human)) of -2.29.
